Positions count from the first letter of the chain named. Names may count otherwise. “And” between values parts separate entries of the source, which are not always exact repeats. Equal entries are not always repeated. Where two headings read alike, the source gives them in different places.
What was measured:
Ec NucC [1] = target: T1, Ec NucC (Escherichia coli, UniProt D7Y2H5); assay: ITC; assay type: binding
Pa NucC = Pa NucC (Pseudomonas aeruginosa, UniProt P0DTF8, D73N); assay: co-crystal structure at […] Å; assay type: binding
Vm NucC = target: T2, Vm NucC (Vibrio metoecus, UniProt P0DUD6); assay: plasmid digestion assay, weak activation; assay type: biochemical
T2 sequence (P0DUD6 1-245): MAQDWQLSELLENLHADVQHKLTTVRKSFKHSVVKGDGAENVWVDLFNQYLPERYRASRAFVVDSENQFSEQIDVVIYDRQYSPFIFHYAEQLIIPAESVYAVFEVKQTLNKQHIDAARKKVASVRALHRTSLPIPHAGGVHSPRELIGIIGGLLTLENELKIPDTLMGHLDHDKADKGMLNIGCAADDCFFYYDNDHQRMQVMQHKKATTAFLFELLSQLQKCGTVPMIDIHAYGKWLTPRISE

Ec NucC [2] = target: T1, Ec NucC; assay: ITC; assay type: binding; remark: listed apart in the source
Ec NucC [3] = target: T1, Ec NucC; assay: ITC; assay type: binding; remark: listed apart in the source
SEC-MALS [4] = target: the molecule itself; assay: SEC-MALS
crystal structure = target: the molecule itself; assay: crystal structure
SEC-MALS [5] = target: the molecule itself; assay: SEC-MALS; remark: listed apart in the source

Nc1ncnc2c1ncn2[C@@H]1O[C@@H]2COP(=O)(O)O[C@H]3[C@@H](O)[C@H](n4cnc5c(N)ncnc54)O[C@@H]3COP(=O)(O)O[C@H]3[C@@H](O)[C@H](n4cnc5c(N)ncnc54)O[C@@H]3COP(=O)(O)O[C@H]2[C@H]1O [cAAA]
Kd (Ec NucC [1]): 700 nM
co-crystal structure at 1.45 Å; SEC-MALS hexamer assembly of Pa NucC (Pa NucC): We obtained crystals of P. aeruginosa ATCC27853 NucC D73N mutant bound to cAAA

Nc1ncnc2c1ncn2[C@@H]1O[C@@H]2COP(=O)(O)O[C@H]3[C@@H](O)[C@H](n4cnc5c(N)ncnc54)O[C@@H]3COP(=O)(O)O[C@H]2[C@H]1O [cAA]
plasmid digestion assay, weak activation (Vm NucC): weakly activated by both cAA and cAAG

Nc1ncnc2c1ncn2[C@@H]1O[C@@H]2COP(=O)(O)O[C@H]3[C@@H](O)[C@H](n4cnc5c(N)ncnc54)O[C@@H]3COP(=O)(O)O[C@H]2[C@H]1O [3′,3′ cyclic di-AMP]
Kd (Ec NucC [2]): 2600 nM

Nc1ncnc2c1ncn2[C@@H]1O[C@H](COP(=O)(O)O[C@H]2[C@@H](O)[C@H](n3cnc4c(N)ncnc43)O[C@@H]2COP(=O)(O)O)[C@@H](O)[C@H]1O [5′-pApA]
Kd (Ec NucC [3]): 4400 nM

Nc1nc2c(ncn2[C@@H]2O[C@@H]3COP(=O)(O)O[C@H]4[C@@H](O)[C@H](n5cnc6c(N)ncnc65)O[C@@H]4COP(=O)(O)O[C@H]4[C@@H](O)[C@H](n5cnc6c(N)ncnc65)O[C@@H]4COP(=O)(O)O[C@H]3[C@H]2O)c(=O)[nH]1 [cAAG]
plasmid digestion assay, weak activation (Vm NucC): weakly activated by both cAA and cAAG

B1: Vibrio metoecus sp. RC341 NucC (enzyme, UniProt P0DUD6 1-245, looked up)
chain: T2 sequence (P0DUD6 1-245)
stoichiometry N (SEC-MALS [4]): 3 and 6

B2: E. coli MS115-1 NucC (wild type) (enzyme, UniProt D7Y2H5 1-241, looked up)
chain: MSDWSLSQLFASLHEDIQLRLGTARKAFQHPGAKGDASEGVWIEMLDTYLPKRYQAANAFVVDSLGNFSDQIDVVVFDRQYSPFIFKFNEQIIVPAESVYAVFEAKQSASADLVAYAQRKVASVRRLHRTSLPIPHAGGTYPAKPLIPILGGLLTFESDWSPALGMSFDKALNGDLSDGRLDMGCVASHGHFYFNNIDSKFNFEHGNKPATAFLFRLIAQLQFSGTVPMIDIDAYGKWLAN
stoichiometry N (crystal structure): 6
stoichiometry N (SEC-MALS [4]): 3

B3: Ec NucC W4A mutant with D73N (SEC-MALS sample) (enzyme, E. coli MS115-1, UniProt D7Y2H5 1-241, looked up)
chain: B2 chain with W4A, D73N
binding result (SEC-MALS [5]): binds

B4: Ec NucC L19D mutant with D73N (SEC-MALS sample) (enzyme, E. coli MS115-1, UniProt D7Y2H5 1-241, looked up)
chain: B2 chain with L19D, D73N
stoichiometry N (SEC-MALS [5]): 3

B5: Ec NucC L19A mutant with D73N (SEC-MALS sample) (enzyme, E. coli MS115-1, UniProt D7Y2H5 1-241, looked up)
chain: B2 chain with L19A, D73N
binding result (SEC-MALS [5]): binds

B6: P. aeruginosa ATCC 27853 NucC (wild type) (enzyme)
chain: MSQWSLSQLLSSLHEDIQQRLSVVRKTFGHPGTKGDASENVWIDMLDTYLPKRYQAAKAHVVDSLGNFSQQIDVVVFDRQYSPFIFTYENETIIPAESVYAVFEAKQTADAGLVAYAQEKVASVRRLHRTSLPIPHAGGTYPAKPLIPILGGLLTFESEWSPALGPSMDKALNANLTEGRLDIGCVAAHGHFFYDQASGAYSYTNENKPATAFLFKLIAQLQFSGTVPMIDVEAYGQWLTK
stoichiometry N (SEC-MALS [5]): 6
stoichiometry N (SEC-MALS [4]): 3
